These results are taken from article PMC9934533.

This test deals with hybrid aspen (poplar) cellulose synthase isoform-8 (CesA8) (hybrid aspen (poplar)). The experiment in a line: cryo-EM structure.

As a reminder, the stoichiometry N is the number of molecules, sites or subunits per partner or assembly.

On to “hybrid aspen (poplar) cellulose synthase isoform-8 (CesA8) (enzyme)”, for which the stoichiometry N turned out to be 3.
